Assay results reported in patent US12686846B2, “Plant sweet and yeast MSF transporter capable of transporting different sugars simultaneously” (THE BOARD OF TRUSTEES OF THE UNIVERSITY OF ILLINOIS, priority 2020, dated 2026).
Where “and” joins values, the source holds several entries; their conditions need not be identical. Equal entries are not always repeated. Entries after “also recorded” stand apart in the source; their conditions may differ.

B1: Arabidopsis thaliana AtSWEET7 transporter, wild type (Table 2: SEQ ID NO: 3; FIG. 12: SEQ ID NO:2) (Arabidopsis thaliana) (protein)
chain: MVFAHLNLLRKIVGIIGNFIALCLFLSPTPTFVRIVKKKSVEEYSPIPYLATLINCLVWVLYGLPTVHPDSTLVITINGTGILIEIVFLTIFFVYCGRQKQRLIISAVIAAETAFIAILAVLVLTLQHTTEKRTMSVGIVCCVFNVMMYASPLSVMKMVIKTKSVEFMPFWLSVAGFLNAGVWTIYALMPFDPFMAIPNGIGCLFGLAQLILYGAYYKSTKRIMAERENQPGYVGLSSAIARTGSEKTANTNQEPNNV
B2: LST1_205437: Lipomyces starkeyi LST1 transporter polypeptide, SEQ ID NO:4, GenBank ODQ75362.1 (protein)
chain: MGFLGFLNRSQASEPVEKESTATTPSEGRTPQRPLSPAVGVPLEQDFETQLSAKDAPLLAFILGGVASVGGFMFGYQTGQISGFLEMSDFKTRFAACNSQTGQCTFSAARQGTIVGLFSIGTLIGSLIAAPIADRIGRRLTISFWAFFFMIGTVLEISSSHVWVQFAMGRFVGGLGIGALSVVVPMYQSESTPRMIRGVIVSSYQLMVTLGIWLAYMINWGTESLQGSQSWRITNGMSFLWALVLGIAILGLPESPRYAYRVGREEEARKNMARLYKLSPNHPIINLEIQEIQEKLDAERVGGDHPWYEIFTGPRMLYRTILGMVLQAGQQLTGANYFFYYGTTVFSATGLSNSYVTQIILGSVNVGGTIAGLWLIENCGRRKALMGGAAWMFMCFMVFAFVGHFSLDHQNPEATPQAGAALVVFSCLFIIAFAMTWGPIVWAIVGELYPARYRATCMGLATSSNWLFNFLIGFFTTFITGDIDYLYGLVFAGCCFALFFIVYFFVIETKGRSLEEIDTMYVLHVNPINSAKWDSSQLMRDGDGLVNTDDLYLEAGGNRFAKDEHSAHEMIPSHDENAPGPSHTSHADIEKAESSGAESRDAL
modifications: Lipomyces starkeyi LST1_204537 transporter polypeptide

Assays:
[1] = test system: transporter-overexpressing SR8D8; experiment: Inhibition of xylose uptake by glucose; assay type: cell-based, S. cerevisiae; settings: 25 mM or 100 mM glucose
Description: SR8D8 containing the respective plasmid was grown on selective YPE medium to an OD600 of 1-1.5, harvested by centrifugation, and washed twice in ice-cold uptake buffer (100 mM potassium phosphate, pH 6.5). C14 labeled sugar uptake assay was done according to Boles and Oreb. Radioactivity was analyzed in a Beckman-Coulter LS6500 multi-purpose liquid scintillation counter (Beckman-Coulter, CA, USA).
Sugar solutions contained 0.135-0.608 μCi of D-[U-^14C]-glucose (290-300 mCi/mmol) or D-[1-^14C]-xylose (55 mCi/mmol) (PerkinElmer, MA, USA). Calculation of Km (Michaelis constant), Vmax (maximal initial uptake velocity), and K (inhibitor constant for competitive inhibition) was done by nonlinear regression analysis and global curve fitting in Prism 7 (GraphPad Software) with values of three independent measurements.

[2] = test system: SR8D8 expressing transporter; experiment: Sole glucose or xylose flask fermentation; assay type: cell-based, S. cerevisiae; settings: glucose or xylose conditions, YP medium
Description: (§1) For flask fermentation, a single colony was inoculated to 5 or 25 mL YPE ([…], 1% w/v yeast extract, 2% peptone, 5% ethanol) supplemented with 200 μg/ml of geneticin to obtain seed cultures. […] Flask fermentations were maintained at 30° C. and 250 rpm.
(§2) A xylose fermenting S. cerevisiae yeast (SR8) with HXT1-7Δ, GAL2Δ deletions was used for transporter screening and characterization (SR8D8). SR8D8 was grown in YPE medium/plate (10 g/L yeast extract, 20 g/L peptone, and 5 g/L ethanol). […] SRD8 strains transformed with plasmid containing KanMX marker conferring resistance to G418 (geneticin) were propagated on YPE supplemented with 200 μg/ml of geneticin. For growth and flask fermentation experiments all media was supplemented with 200 μg/ml of geneticin for plasmid maintenance. Biomass was calculated from the OD600 measured using a Biomate 5 UV-visible spectrophotometer (Fisher, NY, USA). All growth rates were measured using a Bioscreen C plate reader system (Growth Curves USA, Piscataway, NJ, USA). A 2 μL inoculum of fully grown culture was added into 200 μL YP (+200 μg/ml Geneticin) with varying concentrations of different sugars. A wide band filter (420-580 nm) was used to measure optical density. Bioscreen C values represent mean value from three biological replicates. In all cases, the Bioscreen C was set to maintain a temperature of 30° C. and high aeration through high continuous shaking.

[3] = test system: SR8D8 expressing transporter; experiment: Mixed sugar fermentation at industrially relevant sugar concentrations; assay type: cell-based, S. cerevisiae; settings: 7% glucose and 4% xylose (70 g/L, 40 g/L)
Description: as §1

[4] = substrate: OC[C@H]1OC(O)[C@H](O)[C@@H](O)[C@@H]1O; experiment: cells, lysate or membranes; settings: other: initial glucose uptake (5 s), 30° C., pH 6.5, 0.2 to 100 mM glucose, ± SEM in Table 1
[5] = test system: SR8D8 expressing transporter; experiment: Glucose and xylose mixed sugar flask fermentation (20 g/L each); assay type: cell-based, S. cerevisiae; settings: 20 g/L of glucose and xylose, YP medium
Description: as §1, §2

[6] = test system: SR8D8 expressing transporter; experiment: Transporter screening for growth on glucose or xylose (Bioscreen C); assay type: cell-based, S. cerevisiae; settings: glucose or xylose containing medium, OD600
Description: ScGal2 expressing SR8D8 were used as a positive control (FIG. 3). Most of the AtSWEETs and putative oleaginous transporters expressing strains were not able to grow on glucose or xylose.
as §2

Row | Molecule | inhibition of xylose transport by glucose (in words) [1] | sole sugar fermentation performance [2] | mixed sugar utilization profile at high sugar [3] | Km [4] | glucose and xylose mixed sugar fermentation phenotype [5] | glucose and xylose mixed sugar fermentation phenotype ([5]; listed as SWEET7) | growth / transport capacity on glucose or xylose [6] | growth / transport capacity on glucose or xylose ([6]; listed as SWEET7)
1 | B1 | do not have any xylose transport inhibition in the presence of both 25 mM and 100 mM glucose | enabled glucose and xylose fermentation, depleting all provided sugars | co-consumption of glucose and xylose even at higher glucose concentrations | 75 mM and 74.1 ± 13.0 mM | simultaneous co-consumption of glucose and xylose with almost the same rates of sugar consumption; also recorded: true co-fermentation phenotype | simultaneously utilize glucose and xylose | substantial growth on xylose and glucose; also recorded: both glucose and xylose transport capacity | capable of sustaining an efficient growth on glucose or xylose
2 | B2 | partial inhibition of xylose uptake by glucose | enabled glucose and xylose fermentation, depleting all provided sugars | partial xylose and glucose co-consumption |  | co-consumption of glucose and xylose; also recorded: partial co-fermentation; also recorded: simultaneously utilize glucose and xylose |  | substantial growth on xylose and glucose; also recorded: capable of sustaining an efficient growth on glucose or xylose | 
